Tests used:
Details in all cases: source organism: Homo sapiens
HLA-A*03:01 = test: IEDB peptide-MHC binding, purified MHC/competitive/radioactivity; ≥ and ≤ were set here for values at or beyond the usual limits of such assays
HLA-A*33:01 = test: IEDB peptide-MHC binding, purified MHC/competitive/radioactivity; filed as Kd, often an IC50 or EC50 that approximates it; ≥ and ≤ were set here for values at or beyond the usual limits of such assays
HLA-A*68:01 = test: as above
HLA-A*31:01 = test: as above
HLA-A*11:01 = test: IEDB peptide-MHC binding, purified MHC/competitive/radioactivity; ≥ and ≤ were set here for values at or beyond the usual limits of such assays

Sequence | IC50 (HLA-A*03:01) | Kd (HLA-A*33:01) | Kd (HLA-A*68:01) | Kd (HLA-A*31:01) | IC50 (HLA-A*11:01)
LIYRRRLMK | 5.5 nM |  |  |  | 
ALNFPGSQK | 8.5 nM | ≥ 10000 nM | ≥ 10000 nM | ≥ 10000 nM | 4.6 nM
SLIYRRRLMK | 39.3 nM |  |  |  | 

More lines, in order of falling IC50 (HLA-A*03:01), values ahead:

IC50 (HLA-A*03:01) | Kd (HLA-A*33:01) | Kd (HLA-A*68:01) | Kd (HLA-A*31:01) | IC50 (HLA-A*11:01) | Sequence
52.4 nM |  |  |  |  | QLVLHQILK
36.7 nM | ≥ 10000 nM | 4700 nM | ≥ 10000 nM | 316 nM | IALNFPGSQK
